The record followed here is the DeepSol protein solubility set.

The data set in a line: soluble on expression in E. coli; label from the status in PepcDB or PDB records.
With “ARPCIPKSFGYSSVVCVCNATYCDSFDPPTFPALGTFSRYESTRSGRRMELSMGPIQANHTGTGLLLTLQPEQKFQKVKGFGGAMTDAAALNILALSPPAQNLLLKSYFSEEGIGYNIIRVPMASCDFSIRTYTYADTPDDFQLHNFSLPEEDTKLKIPLIHRALQLAQRPVSLLASPWTSPTWLKTNGAVNGKGSLKGQPGDIYHQTWARYFVKFLDAYAEHKLQFWAVTAENEPSAGLLSGYPFQCLGFTPEHQRDFIARDLGPTLANSTHHNVRLLMLDDQRLLLPHWAKVVLTDPEAAKYVHGIAVHWYLDFLAPAKATLGETHRLFPNTMLFASEACVGSKFWEQSVRLGSWDRGMQYSHSIITNLLYHVVGWTDWNLALNPEGGPNWVRNFVDSPIIVDITKDTFYKQPMFYHLGHFSKFIPEGSQRVGLVASQKNDLDAVALMHPDGSAVVVVLNRSSKDVPLTIKDPAVGFLETISPGYSIHTYLWHRQ”, the “soluble on expression in E. coli” value is listed as “soluble”. To “MNYHQYYPIDVVNGPGTRCTLFVSGCVHQCKGCYNQSTWSLSSGHRYTQEMEDKIIADLKDTRIKRRGLSLSGGDPMHPANLSAVLQLVQRVKTECPDKDIWLWTGYTLAELDDSQQALLPYIDVLVDGKFIQEQADPGLEWRGSANQVIHRFTLLEHHHHHH” belongs “not soluble”. The value for “GLVAHSDLDERAIEALKEFNEDGALAVLQQFKDSDLSHVQNKSAFLCGVMKTYRQREKQGTKVADSSKGPDEAKIKALLERTGYTLDVTTGQRKYGGPPPDSVYSGQQPSVGTEIFVGKIPRDLFEDELVPLFEKAGPIWDLRLMMDPLTGLNRGYAFVTFCTKEAAQEAVKLYNNHEIRSGKHIGVCISVANNRLFVGSIPKSKTKEQILEEFSKVTEGLTDVILYHQPDDKKKNRGFCFLEYEDHKTAAQARRRLMSGKVKVWGNVGTVEWADPIEDPDPEVMAKVKVLFVRNLANTVTEEILEKAFSQFGKLERVKKLKDYAFIHFDERDGAVKAMEEMNGKDLEGENIEIVFAKPPDQKRKERKAQRQAAKNQMYDDYYYYGPPHMPPPTRGRGRGGRGGYGYPPDYYGYEDYYDYYGYDYHNYRGGYEDPYYGYEDFQVGARGRGGRGARGAAPSRGRGAAPPRGRAGYSQRGGPGSARGVRGARGGAQQQRGRGQGKGVEAGPDLLQ” was “soluble”; that for “GPGSMFLSLANKLVVSRQRGSSCERMAQPKERASISSEELVVWKAAERVRKGASLPLSRVARCIASATKLLKVETKVVERVCGDTIVFGPIRGHAADFANILLTKVLPNRCVRNIVFLGNYIDGAHQSLGVLFLIAALIVCSRFHIVPLIGKHEMMYPILSETFGSLRNEMLLCCTRRRQPLEQYESIMKEFFSVLPIACVVENKFFCVAGGPSSKFRTLKEIELITMTQEASNEFVLNEPMDEDEERIADRSAFVASQGTELAFRYTFNAACNFLSRNKLAMLIVGMEYHMSLPDYDSFARPNHYKESIYFPGYMLGRIHPESQLPAVLSIFSAPSFCGVNRNNACIAEIAGNRLVVQELGVYAKRPLVTPGTQDHAFSWAQPMLERAVVAIARDIIRGVIKEDAATDDDAHRKRLEEVAVSKMRRMCMLLRTHNIPFPDVPKLTFR” was “not soluble”. For “MGSDKIHHHHHHMDINFEYYKIFYYVAKYCNFTKAARALGNSQPNVTRAMNNLEQQINSILFIRNNRGVQLTPEGERLYAHVSAAMSQILAAEEELSDSIGLSHGSVSIGASETALNIYLLDRLKPFHMAYPGIRLKIYNHSTPQAINAVKNGMIDFAVVSTPAEVEAPLKMIKLGSFQEILVGGTTFTALGSQTLSLKELHNYPLIGLGRETMTFQFFNRLFMSHGLEFAPDTETATTDQILPLVKSELGLAFMPKPMAEAAIANREIVEIALEEEIPQRNICMVYDIHQPISAAARELKKVISDSHKV”, the “soluble on expression in E. coli” value is “not soluble”. Turning to “MYNLHREKIFMSYNQNKQYLEDNPEIQEKIELYGLNLLNEVISDNEEEIRADYNEANFLHPFWMNYPPLDRGKMPKGDQIPWIEVGEKAVGSKLTRLVSQREDITVREIGLPTGPDERYLLTSPTIYSLTNGFTDSIMMFVDIKSVGPRDSDYDLVLSPNQVSGNGDWAQLEGGIQNNQQTIQGPRSSQIFLPTIPPLYILSDGTIAPVVHLFIKPIYAMRSLTKGDTGQSLYKIKLASVPNGLGLFCNPGYAFDSAYKFLFRPGKDDRTKSLLQKRVRVDLRVLDKIGPRVMTIDMDK”, the “soluble on expression in E. coli” value is listed as “soluble”.

In the case of “MRDQMLPSIILFDGVCNFCNYWVQFIIKRDPQATFQFASLQSEVGQELLEKHSIDRSTDSVVLIMEGQAFVCSDAVLKIVAQLDSPIRWLKWAVIFPRFLRDFIYRIVARNRYKWFGKRDECQIPTKEQRSRFLLEHHHHHH”, the “soluble on expression in E. coli” value was “soluble”.

Take “MGSDKIHHHHHHMQWDVIVVGGGPSGLTMAAELAGSGVRTLVLERRTDGVQSRAGTIMPRVLELLDARGIAHRFIEKTRAISNYPFRPSHIWAGFHPINWKYLESRFGFTLGLPQNHTEEILGAWAAECGAEIRTGMEVLDVRQSDDAVEIDVLDVAGTVATLHARYAVGADGGRSVVRNRLGLPFEGHSGTFRGIVIDAELHAPWPGGRVNVDNEMGWVRGYVFGDGVTRFNIVHRDRRHAPKDEPVTLEEALQCIRDVHGTDYGIRAFRWASRFDDQMRMVSSLRKGRVFLVGESARIHYPASGVGMNFCLQDAFNLGWKLANVINGVADPSTLDTYDAERLPVMHALLESVKAQCALQFNFEPDAVALKRRMQEHIIPLPDVQRKLVLELSGLEAPYPRAPSSHSLTGQRCPDLDLLLPDGSAVAVTQTLRERRFVLLDLEGFSRQFAALNLSGWPVTVLAARAARIPASMEGVKALLLRPDGYVAWAATDVAQAAEAEAQLAKWLKR”: the “soluble on expression in E. coli” value is “not soluble”. To “MAAVSIVFEAPDNYGGAPAVSKKPIDFDHLAQQTMGDKDLEIEVLQLFSRSARAALHEMAGADNKTVTATAHRLKGSAQAVGASAVSAAAAAVEEKGNDSALIAKLAAAIVEAENFILKLCR” belongs “not soluble”; to “DIKMTQSPSSMSASLGESVTITCKASRDIKSYLSWYQQKPWKSPKTLIYYATSLADGVPSRFSGSGSGQDYSLTISSLESDDTATYYCLQHGESPFTFGSGTKLELKRADAAPTVSIFPPSSEQLTSGGASVVCFLNNFYPKDINVKWKIDGSERQNGVLNSWTDQDSKDSTYSMSSTLTLTKDEYERHNSYTCEATHKTSTSPIVKSFN”, “soluble”. To “MGHHHHHHSHMEAPGPAQAAAAESNSREVTEDAADWAPALCPSPEARSPEAPAYRLQDCDALVTMGTGTFGRVHLVKEKTAKHFFALKVMSIPDVIRRKQEQHVHNEKSVLKEVSHPFLIRLFWTWHEERFLYMLMEYVPGGELFSYLRNRGHFSSTTGLFYSAEIICAIEYLHSKEIVYRDLKPENILLDRDGHIKLTDFGFAKKLVDRTWTLCGTPEYLAPEVIQSKGHGRAVDWWALGILIFEMLSGFPPFFDDNPFGIYQKILAGKLYFPRHLDFHVKTGRMM” belongs “not soluble”; to “MFEEKASSPSGKMGGEEKPIGAGEEKQKEGGKKKNKEGSGDGGRAELNPWPEYIYTRLEMYNILKAEHDSILAEKAEKDSKPIKVTLPDGKQVDAESWKTTPYQIACGISQGLADNTVIAKVNNVVWDLDRPLEEDCTLELLKFEDEEAQAVYWHSSAHIMGEAMERVYGGCLCYGPPIENGFYYDMYLEEGGVSSNDFSSLEALCKKIIKEKQAFERLEVKKETLLAMFKYNKFKCRILNEKVNTPTTTVYRCGPLIDLCRGPHVRHTGKIKALKIHKNSSTYWEGKADMETLQRIYGISFPDPKMLKEWEKFQEEAKNRDHRKIGRDQELYFFHELSPGSCFFLPKGAYIYNALIEFIRSEYRKRGFQEVVTPNIFNSRLWMTSGHWQHYSENMFSFEVEKELFALKPMNCPGHCLMFDHRPRSWRELPLRLADFGVLHRNELSGALTGLTRVRRFQQDDAHIFCAMEQIEDEIKGCLDFLRTVYSVFGFSFKLNLSTRPEKFLGDIEVWDQAEKQLENSLNEFGEKWELNSGDGAFYGPKIDIQIKDAIGRYHQCATIQLDFQLPIRFNLTYVSHDGDDKKRPVIVHRAILGSVERMIAILTENYGGKWPFWLSPRQVMVVPVGPTCDEYAQKVRQQFHDAKFMADIDLDPGCTLNKKIRNAQLAQYNFILVVGEKEKISGTVNIRTRDNKVHGERTISETIERLQQLKEFRSKQAEEEF”, “soluble”; to “GSHMVVELAYTDPDRAVDWLVRVFGFRLLLRQPAIGTIRHADLDTGGGIVMVRRTGEPYTVSCAGGHTCKQVIVWVSDVDEHFMRSTAAGADIVQPLQDKPWGLRQYLVRDLEGHLWEFTRHLRDVPPREWGAVAMT”, “soluble”. The value for “MAMIGLVGKPNVGKSTMFNALTEKPAEIGNYPFTTIQPNKGIAYITSPCPCKELGVKCNPRNSKCIDGIRHIPVEVIDVAGLVPGAHEGRGMGNKFLDDLRQADAFILVVDASGKTDAEGNPTENYDPVEDVKFLLNEIDMWIYSILTKNWDKLARRAQQEKNIVKALKDQLSGLNIDEDDIKMAIRDMDESPIKWTEEDLLNLAKKLRKISKPMIIAANKADHPDAEKNIERLKKEFKDYIVIPTSAEIELALKRAEKAGIIKRKENDFEIIDESKVNEQMRRAFDYIKDFLKKYGGTGVQECINKAYFDLLDMIVVYPVEDENKFSDKQGNVLPDAFLVKKGSTARDLAYKVHTELGEKFIYAIDAKKKIRVGADYELKHNDIIKIVSAAK” was “soluble”; that for “MGSDKIHHHHHHMKDVMFYFEIHQPFRLRPTNLYDVKSEQNVFWDEKNEEIFRRVAERSYIPATRNLMEYGIKSSFSITGTAVEQALMYNTKVIDAIDDYVKSGLCEMLSETYYHSLASIWNYDEFKRQVDMHRDLMKRIFNVVPKVFRNTELIYDDRIAEMVKRMGFTSIITEGTDSIVKDHSPNYRYASPSGLNLYLRNYVMSDNISFRFSNTKWKDYPLTADKYAKWINESEGDMVNLFMDYETFGEHQTQETGIFDFMKYLPVYFRDYGIETITISEAEKRHRVKDVLSIPETISWADTRRDLSAWLENEMQIDTFDRIKKCREKAGRLWGYLQTSDIIYYMSIGLEQDFTVHEYFNPYKSPYLAFIYTNYALDKICGSSYGKNEI” was “not soluble”. For “MSTGANLLVMNDTCKSNRWWKTKQEKKHSEIKKVKTLKSTWDKKMELKAKKDMVKRVQDNIREKQVQERQEKKERKVEQEKRRLENERKAEIVQKITKIHKLKKTKKRQLRSIQMRDTTQVTK”, the “soluble on expression in E. coli” value was “not soluble”. The value for “QSRERLVKWLQDAYAMEKEAETMMAAMASRIEHYPELKRRIEQHVEETQQQSAGVQRCLELLNGSIPTAKGMLSSVLASMHAAGNSMMTDEVTKGVGISYAFEHLEIASYRALVVAARSAGEQEVAQICEDILQQEIEMAEWLIEHQEAIVVAFLE” was “not soluble”.

For the sequence “MSQTTTNPHVAVLAFPFSTHAAPLLAVVRRLAAAAPHAVFSFFSTSQSNASIFHDSMHTMQCNIKSYDISDGVPEGYVFAGRPQEDIELFTRAAPESFRQGMVMAVAETGRPVSCLVADAFIWFAADMAAEMGVAWLPFWTAGPNSLSTHVYIDEIREKIGVSGIQGREDELLNFIPGMSKVRFRDLQEGIVFGNLNSLFSRMLHRMGQVLPKATAVFINSFEELDDSLTNDLKSKLKTYLNIGPFNLITPPPVVPNTTGCLQWLKERKPTSVVYISFGTVTTPPPAEVVALSEALEASRVPFIWSLRDKARVHLPEGFLEKTRGYGMVVPWAPQAEVLAHEAVGAFVTHCGWNSLWESVAGGVPLICRPFFGDQRLNGRMVEDVLEIGVRIEGGVFTKSGLMSCFDQILSQEKGKKLRENLRALRETADRAVGPKGSSTENFITLVDLVSKPKDV”, the “soluble on expression in E. coli” value was “soluble”. The value for “FRELTEREEAVRESHQRISTILESITDAFFSLDHSWRFTYLNGEAERLLGRTRDDLLGKSIWEEFAAAVGTRFDVEYRRAVASGTTATFEEYYPPLACWFEVHAYPSRDGLSVFFQDIT” was “not soluble”.
